Reference: paper PMC11109279, “Heliorhodopsin-mediated light-modulation of ABC transporter” (Nature Communications, 2024)

How the values were obtained:
[1] = molecular target: T1, heterodimeric multidrug resistance ABC transporter OmrDE (Omithinimicrobium cerasi strain USBA17B2, UniProt A0A285VW85 1-577; A0A285VWG3 1-661); assay: cell-based or functional assay
T1 sequence (looked up) 1: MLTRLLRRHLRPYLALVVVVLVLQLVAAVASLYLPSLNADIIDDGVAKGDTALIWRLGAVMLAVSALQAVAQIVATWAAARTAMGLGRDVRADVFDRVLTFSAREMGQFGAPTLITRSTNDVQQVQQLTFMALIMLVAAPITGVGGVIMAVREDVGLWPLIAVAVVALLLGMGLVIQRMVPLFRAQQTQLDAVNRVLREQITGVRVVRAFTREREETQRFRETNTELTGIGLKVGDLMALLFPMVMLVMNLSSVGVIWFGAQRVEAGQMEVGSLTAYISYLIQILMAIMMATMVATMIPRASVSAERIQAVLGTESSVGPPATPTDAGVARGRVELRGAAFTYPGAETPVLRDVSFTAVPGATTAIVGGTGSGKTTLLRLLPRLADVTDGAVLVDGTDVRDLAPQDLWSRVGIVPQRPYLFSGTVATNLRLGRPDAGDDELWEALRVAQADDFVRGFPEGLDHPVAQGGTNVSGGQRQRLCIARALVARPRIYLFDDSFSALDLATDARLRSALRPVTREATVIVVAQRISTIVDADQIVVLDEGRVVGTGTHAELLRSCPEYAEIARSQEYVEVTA
T1 sequence (looked up) 2: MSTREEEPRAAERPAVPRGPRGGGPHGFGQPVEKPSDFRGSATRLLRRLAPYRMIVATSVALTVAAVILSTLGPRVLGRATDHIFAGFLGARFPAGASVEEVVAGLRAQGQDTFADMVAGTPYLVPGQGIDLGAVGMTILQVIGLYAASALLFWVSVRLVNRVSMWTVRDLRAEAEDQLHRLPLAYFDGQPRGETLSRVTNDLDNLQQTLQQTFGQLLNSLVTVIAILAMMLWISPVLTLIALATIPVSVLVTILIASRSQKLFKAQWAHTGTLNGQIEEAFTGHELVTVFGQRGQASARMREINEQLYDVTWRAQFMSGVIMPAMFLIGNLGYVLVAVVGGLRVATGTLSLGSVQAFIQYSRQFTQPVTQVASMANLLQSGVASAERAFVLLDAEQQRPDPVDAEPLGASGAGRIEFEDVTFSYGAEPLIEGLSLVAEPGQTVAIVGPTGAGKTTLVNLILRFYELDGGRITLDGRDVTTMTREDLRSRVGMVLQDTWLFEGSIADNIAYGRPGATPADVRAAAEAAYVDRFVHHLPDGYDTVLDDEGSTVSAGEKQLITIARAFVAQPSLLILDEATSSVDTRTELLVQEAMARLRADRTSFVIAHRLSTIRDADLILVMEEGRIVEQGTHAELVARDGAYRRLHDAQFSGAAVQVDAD

[2] = molecular target: T2, NBD-truncated OmrDE (OmrD^tcE^tc) (Omithinimicrobium cerasi strain USBA17B2); assay: ITC; replicate #1
T2 chain 1: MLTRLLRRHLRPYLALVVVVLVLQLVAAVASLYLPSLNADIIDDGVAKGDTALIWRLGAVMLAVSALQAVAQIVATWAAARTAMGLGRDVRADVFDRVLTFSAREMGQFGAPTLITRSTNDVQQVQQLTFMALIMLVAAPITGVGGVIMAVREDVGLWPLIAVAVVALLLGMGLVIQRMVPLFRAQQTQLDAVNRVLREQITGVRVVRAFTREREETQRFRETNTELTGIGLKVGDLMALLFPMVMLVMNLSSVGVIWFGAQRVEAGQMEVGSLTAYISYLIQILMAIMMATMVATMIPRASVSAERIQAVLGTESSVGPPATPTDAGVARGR
T2 chain 2: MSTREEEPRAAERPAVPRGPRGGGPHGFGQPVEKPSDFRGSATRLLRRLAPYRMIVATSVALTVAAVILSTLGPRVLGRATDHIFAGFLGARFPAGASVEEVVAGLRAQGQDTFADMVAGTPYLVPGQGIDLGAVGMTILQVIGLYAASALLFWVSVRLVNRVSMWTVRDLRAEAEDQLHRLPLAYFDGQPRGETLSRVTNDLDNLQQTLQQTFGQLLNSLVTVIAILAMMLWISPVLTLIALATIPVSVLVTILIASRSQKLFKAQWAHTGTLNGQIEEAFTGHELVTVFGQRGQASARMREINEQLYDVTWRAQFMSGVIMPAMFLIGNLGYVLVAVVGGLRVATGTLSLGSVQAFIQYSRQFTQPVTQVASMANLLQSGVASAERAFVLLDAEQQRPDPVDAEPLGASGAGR

[3] = molecular target: T3, heterodimeric multidrug resistance ABC transporter OmrDE (Omithinimicrobium cerasi strain USBA17B2, UniProt A0A285VW85 1-577; A0A285VWG3 1-661); assay: ITC; replicate #4
T3 chain 1: T1 sequence (looked up) 1
T3 chain 2: T1 sequence (looked up) 2

[4] = molecular target: T2, NBD-truncated OmrDE (OmrD^tcE^tc); assay: ITC; replicate #2
[5] = molecular target: T3, heterodimeric multidrug resistance ABC …; assay: ITC; replicate #2
OmrE (OmrE-His) = molecular target: T4, OmrE (OmrE-His) (Omithinimicrobium cerasi strain USBA17B2, UniProt A0A285VWG3 1-661); assay: ITC; replicate #2
T4 chain: T1 sequence (looked up) 2

OmrD (OmrD::his-tag) = molecular target: T5, OmrD (OmrD::his-tag) (Omithinimicrobium cerasi strain USBA17B2, UniProt A0A285VW85 1-577); assay: ITC; OcHeR injected into the Omr protein; 25 °C, 500 rpm; buffer SD; MicroCal ITC200; one site binding model (sequential binding site model for R233Q); perfect saturation was not achieved; settings: both partners purified
T5 construct: OmrD-His calculated as 62.86 kDa; also called pET21b-OmrD; source: E. coli C43 (DE3); purified (Ni2+-NTA agarose) for ITC; in DDM-solubilized membrane proteins for the His-tag pull-down
T5 sequence (looked up): T1 sequence (looked up) 1

B1: Omithinimicrobium cerasi strain USBA17B2 heliorhodopsin (OcHeR) WT (natural protein, UniProt A0A285W045 1-266, looked up)
chain: MGSTGTGSTASTTRADESRYAGLRRYNVVAAVVHAAQAVAVVVLATDFTLPMTASYLAGPPGSPPGEAVTLWDVPIPLAIATFLALSALFHVIVASPPFFDRYRRGLAQGHNYFRWVEYSLSSSLMIVIIAQLVGISDVVALLGLFGVNASMILFGWLQEKYHQPGDGGWLPFVFGCLAGAVPWVGIVLYTIAPGSTSGAEPPGFVYGIIVSLFLFFNVFALVQWLQYRPVGRFRDYLLGERLYITLSLVAKSALAWQIFGGTLAT
modifications: retinal Schiff base linked to K252
notes: gene codon-optimized for E. coli and chemically synthesized; source: E. coli C43 (DE3), purified (DDM-solubilized membrane fraction, Ni2+-NTA agarose)
kcat/Km of ATP hydrolysis of purified OmrDE with OcHeR WT (1:1), absence of light [1]: 37.7 M^−1 S^−1 | kcat/Km of ATP hydrolysis of purified OmrDE with OcHeR WT (1:1), presence of light (532 nm) [1]: 58.4 M^−1 S^−1 | Kd [2]: 42 µM | Kd [3]: 62 µM | Kd [4]: 29 µM | Kd [5]: 122 µM | Kd (OmrE (OmrE-His)): 24 µM | Kd (OmrD (OmrD::his-tag)): 123 µM
